The values below come from patent US20180244787A1 (Sanofi, published 2018).

Residue numbers refer to the chain shown, from its start.

T1: recombinant human CXCR3 (human, UniProt P49682 1-368, limits assumed)
T1 construct: also called C-X-C motif chemokine receptor 3
T1 sequence (looked up): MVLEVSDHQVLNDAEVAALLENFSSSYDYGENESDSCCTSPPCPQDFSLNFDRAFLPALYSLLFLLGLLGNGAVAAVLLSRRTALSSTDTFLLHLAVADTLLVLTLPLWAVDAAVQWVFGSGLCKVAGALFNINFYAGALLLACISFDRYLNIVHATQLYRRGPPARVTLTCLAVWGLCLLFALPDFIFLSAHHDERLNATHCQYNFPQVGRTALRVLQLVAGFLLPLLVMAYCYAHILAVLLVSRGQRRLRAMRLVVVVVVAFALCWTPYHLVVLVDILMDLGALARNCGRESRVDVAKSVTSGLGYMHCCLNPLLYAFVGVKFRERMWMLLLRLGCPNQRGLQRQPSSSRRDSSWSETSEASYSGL

B1: humanized clone 53 HuAntibody 23 (antibody, V domains shown)
VH: EVQLLESGGGLVQPGGSLRLSCAASGFTFTSYAMSWVRQAPGKGLEWVAVISHGGTYTYYADSVKGRFTISRDNAKNTLYLQMNSLRAEDTAVYYCARHPIYSGNYQGYFDYWGQGTLVTVSS
VL: DIQLTQSPSFLSASVGDRVTITCRASSGVNYLYWYQQKPGKAPKLWIYFTSTLAPGVPSRFSGSGSGNEYTLTISSLQPEDFATYYCQQFTSSPYTFGGGTKLEIK
notes: humanized anti-human CXCR3 mAb
B2: humanized clone 53 HuAntibody 30 (antibody, V domains shown)
VH: B1 VH
VL: B1 VL with P55S
notes: as for B1
B3: humanized clone 53 HuAntibody 24 (antibody, V domains shown)
VH: B1 VH with V50T, A61P, V93M
VL: B1 VL
notes: as for B1
B4: humanized clone 53 HuAntibody 34 (antibody, V domains shown)
VH: B1 VH
VL: B1 VL with P55S, G99Q
notes: as for B1
B5: humanized clone 53 HuAntibody 33 (antibody, V domains shown)
VH: B1 VH with V50T, A61P
VL: B1 VL with P55S
notes: as for B1
B6: humanized clone 53 HuAntibody 29 (antibody, V domains shown)
VH: B1 VH with V50T, A61P
VL: B1 VL with G99Q
notes: as for B1
B7: humanized clone 53 HuAntibody 26 (antibody, V domains shown)
VH: B1 VH
VL: B1 VL with G99Q
notes: as for B1
B8: humanized clone 53 HuAntibody 31 (antibody, V domains shown)
VH: B1 VH with V50T, A61P, V93M
VL: B1 VL with P55S
notes: as for B1
B9: humanized clone 53 HuAntibody 27 (antibody, V domains shown)
VH: B1 VH with V50T, A61P, V93M
VL: B1 VL with G99Q
notes: as for B1
B10: humanized clone 53 HuAntibody 35 (antibody, V domains shown)
VH: B1 VH with V50T, A61P, V93M
VL: B1 VL with P55S, G99Q
notes: as for B1
B11: humanized clone 53 HuAntibody 25 (antibody, V domains shown)
VH: B1 VH with V50T, A61P
VL: B1 VL
notes: as for B1

The target in this experiment is T1, recombinant human CXCR3. Kind of experiment: binding kinetics; method and antigen not given.
Take B1: the dissociation constant Kd came out at 0.322 nM, the off-rate constant (koff) was determined as 2.45e-05 s⁻¹ and the kon came out at 75600 M⁻¹ s⁻¹.
For B2, in that order: 1.34 nM, 0.000126 s⁻¹ and 93700 M⁻¹ s⁻¹.
For B3, in that order: 0.0614 nM, 6.16e-06 s⁻¹ and 101000 M⁻¹ s⁻¹.
The matching figures for B4: 1.03 nM, 9.19e-05 s⁻¹ and 88900 M⁻¹ s⁻¹.
Take B5: the Kd came to 0.656 nM.
As for B6, the dissociation constant Kd amounted to 0.303 nM, the koff is 3.5e-05 s⁻¹ and the kon was 115000 M⁻¹ s⁻¹.
B7: the Kd is 0.537 nM, the off-rate (koff) was found to be 5.46e-05 s⁻¹ and the kon stood at 101000 M⁻¹ s⁻¹.
For B8, in that order: 0.449 nM, 5e-05 s⁻¹ and 111000 M⁻¹ s⁻¹.
As for B9, the equilibrium dissociation constant (Kd) was 0.0737 nM, the off-rate (koff) came out at 8.34e-06 s⁻¹ and the on-rate (kon) was 113000 M⁻¹ s⁻¹.
B10: the dissociation constant Kd came to 0.0456 nM, the dissociation rate constant (koff) is 4.73e-06 s⁻¹ and the kon is 102000 M⁻¹ s⁻¹.
For B11, in that order: 0.623 nM, 6.21e-05 s⁻¹ and 99500 M⁻¹ s⁻¹.
